{"source": "patent US11219221B2", "about": "(FarmHannong Co., Ltd., priority 2017, dated 2022)", "molecules": {"B1": {"name": "F359V: CyPPO17 variant (protein)", "chain": "MEVDVAIVGGGLSGLSVAWRLQQSAPQYSGVLLEASDRLGGNITTQGAEGFVWELGPNSFAPTPALLQLIAEVGLHSELIRGDRHLPRYIYWRGELYPLEPTRPLALATSNLLSPWGKVRAALGALGFVPPYLGSGDESVNSFFRRHLGQEVAERLVAPFVSGVYAGDPQQLSAAAAFRRIAQLEKLGGGLIAGALRLRRQQPPKPRPPAEVQMRPGELGSFKEGLAALPRAIAQQLKAPVHLQTPVEAITPEPNGGYLLRSGEQTWQARSVVLATPAYQTAALVAPFQPAIARVLAAIPYPTVACVVLAYPAGLGRSVRPGFGVLIPRGQGIRTLGTIWSSCLFPQRTPAGWQVFTSVIGGATDPDLASLREEAIVQQVQQDLTRLLDLPAAKARLLGMKVWRRAIPQYLVGYPQQWQQVTHALSQTPGLFLCSNYAEGVALGDRVEHGNRTAAAVAAYLSGGQS", "modifications": "Synthetic (Protoporphyrinogen IX oxidase (CyPPO17) of Thermosynechococcus sp. NK55a)", "notes": "CyPPO17 variant"}, "B2": {"name": "R88A: CyPPO17 variant (protein)", "chain": "B1 chain with R88A, V359F", "modifications": "Synthetic (Protoporphyrinogen IX oxidase (CyPPO17) of Thermosynechococcus sp. NK55a)", "notes": "CyPPO17 variant"}, "B3": {"name": "F359M: CyPPO17 variant (protein)", "chain": "B1 chain with V359M", "modifications": "Synthetic (Protoporphyrinogen IX oxidase (CyPPO17) of Thermosynechococcus sp. NK55a)", "notes": "CyPPO17 variant"}, "B4": {"name": "F160A: CyPPO17 variant (protein)", "chain": "B1 chain with F160A, V359F", "modifications": "Synthetic (Protoporphyrinogen IX oxidase (CyPPO17) of Thermosynechococcus sp. NK55a)", "notes": "CyPPO17 variant"}, "B5": {"name": "F359T: CyPPO17 variant (protein)", "chain": "B1 chain with V359T", "modifications": "Synthetic (Protoporphyrinogen IX oxidase (CyPPO17) of Thermosynechococcus sp. NK55a)", "notes": "CyPPO17 variant"}, "B6": {"name": "L326T + F359M: CyPPO17 variant (protein)", "chain": "B1 chain with L326T, V359M", "modifications": "Synthetic (Protoporphyrinogen IX oxidase (CyPPO17) of Thermosynechococcus sp. NK55a)", "notes": "CyPPO17 variant"}, "B7": {"name": "F359I: CyPPO17 variant (protein)", "chain": "B1 chain with V359I", "modifications": "Synthetic (Protoporphyrinogen IX oxidase (CyPPO17) of Thermosynechococcus sp. NK55a)", "notes": "CyPPO17 variant"}, "B8": {"name": "I339T: CyPPO17 variant (protein)", "chain": "B1 chain with I339T, V359F", "modifications": "Synthetic (Protoporphyrinogen IX oxidase (CyPPO17) of Thermosynechococcus sp. NK55a)", "notes": "CyPPO17 variant"}, "B9": {"name": "L326T: CyPPO17 variant (protein)", "chain": "B1 chain with L326T, V359F", "modifications": "Synthetic (Protoporphyrinogen IX oxidase (CyPPO17) of Thermosynechococcus sp. NK55a)", "notes": "CyPPO17 variant"}}, "key": {"CyPPO17 [1]": {"test_system": "CyPPO17", "experiment": "Herbicide tolerance test of CyPPO17 wild type and variants in PPO-deficient E. coli BT3(ΔPPO)", "format": "cell-based, Thermosynechococcus sp. NK55a", "conditions": "BT3(ΔPPO) transformants; for Herbicide tolerance, tiafenacil: 37° C., 16 to 20 hours", "procedure": "The mutated CyPPO gene obtained from the Example 2 was transformed to BT3 (ΔPPO) strain which is deficient of PPO activity and cultured in LB media with PPO-inhibiting herbicide, thereby examining whether growth of transformed BT3 was not inhibited.\nBT3 competent cells were transformed with the pET303-CyPPO16 and pET303-CyPPO17 plasmids and those with a mutation(s) constructed in Example 2 respectively, and were cultured in LB agar media containing carbenicillin (Gold Biotechnology, Co., Ltd.).\nSingle colony of E. coli transformed with each CyPPO gene was cultured in 3 ml of LB broth containing carbenicillin overnight, and then was subcultured until absorbance (0D600) reached 0.5 to 1. Then, it was diluted with LB broth to OD600=0.5. Again, the diluted solution was serially diluted 4 times by a factor of one tenth.\nThe LB agar media (LB 25 g/l, Bacto agar 15 g/l) containing carbenicillin (100 μg/ml) and 0 to 4,000 μM of various herbicides dissolved in DMSO was prepared. Next, 10 μl of each diluted solution was dropped on the plate and cultured at 37° C. under light (Tables 7 and 9, FIGS. 2 to 6, and 18 to 22) or dark (Tables 8 and 10, FIGS. 7 to 17, and 23 to 33) for 16 to 20 hours. Then, extent of tolerance was evaluated.\nThe extent of herbicide tolerance of the mutated genes was evaluated by comparing that of mutated genes with that of wild type. The relative tolerance was represented with “+” as a factor of 10 times. Evaluation result was listed in Tables 7 to10 and FIGS. 2 to 33:\nIn Tables 7 to 10, tolerance level was presented as of tolerance of wild type and of variants equivalent to that of wild type, and was done as ‘+’ per each 10 fold resistance until ‘+++++’ as maximal resistance. (Tolerance level was evaluated by relative growth level of variants to that of wild type in the media containing highest concentration of herbicide; ‘+’=1-9 fold higher tolerance, ‘++’=10-99 fold higher tolerance, ‘+++’=100-999 fold higher tolerance, ‘++++’=1,000-9,999 fold higher tolerance, ‘+++++’=more than 10,000 fold higher tolerance)\nThe concentrations of herbicides were written above the photographs of tolerance test. A dilution series (0D600=0.5, 0.05, 0.005, 0.0005, 0.00005) was made and spotted on LB agar plates supplemented with herbicides."}, "CyPPO17 [2]": {"test_system": "CyPPO17", "experiment": "PPO enzyme activity of MBP-fused CyPPO17 wild type and variants", "format": "biochemical, Thermosynechococcus sp. NK55a", "conditions": "PPO enzyme activity relative to wild type; MBP-fused protein, 50 μM protoporphyrinogen IX, room temperature, 30 min", "procedure": "Thus, PPO proteins of wild type and variants were expressed as fused to MBP and were used for experiments.\nThe following process for purification of PPO protein was performed in a 4° C. cold room. Amylose resin (NEB) was packed to 1.5×15 cm column (Bio-Rad, Econo Columns 1.5×15 cm, glass chromatography column, max. vol), and the obtained protein extracts were loaded to the column at a flow rate of 0.2 ml/min. The column was washed with 3 column volumes of buffer and the presence of protein in the washing solution was examined. When the protein was no longer detected, the washing procedure was terminated. Then, the MBP-PPO protein was eluted with approximately 2 column volumes of buffer containing 20 mM maltose. The protein concentration of each eluent was determined and the elution was stopped when the protein was no longer detected. Ten microliter of each fraction was investigated for protein quantification and SDS-PAGE analysis. The highly pure fractions of PPO protein variants were used for the enzyme assay.\nSince protoporphyrinogen IX, a substrate of PPO protein, was not commercially available, it was chemically synthesized in the laboratory. Overall process was performed in dark under nitrogen stream. […] of protoporphyrin IX was dissolved in 20 ml of 20% (v/v) EtOH, and stirred under dark condition for 30 minutes. The obtained protoporphyrin IX solution was put into a 15 ml screw tube in an amount of 800 μl, and flushed with nitrogen gas for 5 minutes. To this, 1.5 g of sodium amalgam was added and vigorously shaken for 2 minutes. The lid was opened to exhaust hydrogen gas in the tube. Thereafter, the lid was closed and incubated for 3 minutes. The protoporphyrinogen IX solution was filtered using syringe and cellulose membrane filter. […] To determine the enzyme activity of PPO protein, a reaction mixture was prepared with the following composition (based on 10 ml): 50 mM Tris-Cl (pH 8.0); 50 mM NaCl; 0.04% (v/v) Tween 20; 40 mM glucose (0.072 g); 5 units glucose oxidase (16.6 mg); and 10 units catalase (1 μl).\nHundred and eighty microliters of a reaction mixture containing the purified PPO protein were placed in 96 well plates and 20 μl of […] were added. […] The reaction proceeded at room temperature for 30 min and the fluorescence of protoporphyrin IX was measured using Microplate reader (Sense, Hidex) (excitation: 405 nm; emission: 633 nm). […] To this, 2.7 N HCl was added, and the absorbance at 408 nm was measured. A standard curve was generated using standard protoporphyrin IX, and PPO activity was measured by calibration of protoporphyrin IX using the standard curve of protoporphyrin IX.\nActivities of variants were presented relatively compared to that of wild type."}, "[3]": {"conditions": "one amino acid mutation, light, relative to wild type at highest concentration (50, 100 μM)"}, "[4]": {"conditions": "one amino acid mutation, light, relative to wild type at highest concentration (5, 25 μM)"}}, "note": "Positions count from the first letter of the chain named. In names and notes the source's numbering stands."}
{"molecule": "B1", "values": [{"measurement": "Herbicide tolerance, tiafenacil", "setting": "CyPPO17 [1]; [3]", "result": "++ (‘++’=10-99 fold higher tolerance)"}, {"measurement": "Herbicide tolerance, pyraflufen-ethyl", "setting": "CyPPO17 [1]; one amino acid mutation, light, relative to wild type at highest concentration (5, 10 μM)", "result": "++ (‘++’=10-99 fold higher tolerance)"}, {"measurement": "Herbicide tolerance, acifluorfen", "setting": "CyPPO17 [1]; [4]", "result": "+ (‘+’=1-9 fold higher tolerance)"}, {"measurement": "Herbicide tolerance, fomesafen", "setting": "CyPPO17 [1]; [4]", "result": "+ (‘+’=1-9 fold higher tolerance)"}, {"measurement": "Herbicide tolerance, pentoxazone", "setting": "CyPPO17 [1]; [4]", "result": "++ (‘++’=10-99 fold higher tolerance)"}, {"measurement": "Herbicide tolerance, pyraclonil", "setting": "CyPPO17 [1]; [4]", "result": "+ (‘+’=1-9 fold higher tolerance)"}, {"measurement": "Herbicide tolerance, sulfentrazone", "setting": "CyPPO17 [1]; [4]", "result": "++ (‘++’=10-99 fold higher tolerance)"}, {"measurement": "Herbicide tolerance, flumioxazin", "setting": "CyPPO17 [1]; [3]", "result": "++ (‘++’=10-99 fold higher tolerance)"}, {"measurement": "Herbicide tolerance, saflufenacil", "setting": "CyPPO17 [1]; one amino acid mutation, light, relative to wild type at highest concentration (50, 200 μM)", "result": "+++ (‘+++’=100-999 fold higher tolerance)"}, {"measurement": "Activity (%)", "setting": "CyPPO17 [2]", "result": 84, "unit": "%"}]}
{"molecule": "B2", "values": [{"measurement": "Activity (%)", "setting": "CyPPO17 [2]", "result": 70, "unit": "%"}]}
{"molecule": "B3", "values": [{"measurement": "Activity (%)", "setting": "CyPPO17 [2]", "result": 90, "unit": "%"}]}
{"molecule": "B4", "values": [{"measurement": "Activity (%)", "setting": "CyPPO17 [2]", "result": 63, "unit": "%"}]}
{"molecule": "B5", "values": [{"measurement": "Activity (%)", "setting": "CyPPO17 [2]", "result": 56, "unit": "%"}]}
{"molecule": "B6", "values": [{"measurement": "Herbicide tolerance, tiafenacil", "setting": "CyPPO17 [1]; two or more amino acid mutations, dark, relative to wild type at highest concentration (50, 200 μM)", "result": "++++ (‘++++’=1,000-9,999 fold higher tolerance)"}, {"measurement": "Herbicide tolerance, flumioxazin", "setting": "CyPPO17 [1]; two or more amino acid mutations, dark, relative to wild type at highest concentration (100, 200 μM)", "result": "++++ (‘++++’=1,000-9,999 fold higher tolerance)"}, {"measurement": "Herbicide tolerance, sulfentrazone", "setting": "CyPPO17 [1]; two or more amino acid mutations, dark, relative to wild type at highest concentration (200, 400 μM)", "result": "+++ (‘+++’=100-999 fold higher tolerance)"}, {"measurement": "Activity (%)", "setting": "CyPPO17 [2]", "result": 74, "unit": "%"}]}
{"molecule": "B7", "values": [{"measurement": "Activity (%)", "setting": "CyPPO17 [2]", "result": 92, "unit": "%"}]}
{"molecule": "B8", "values": [{"measurement": "Activity (%)", "setting": "CyPPO17 [2]", "result": 48, "unit": "%"}]}
{"molecule": "B9", "values": [{"measurement": "Activity (%)", "setting": "CyPPO17 [2]", "result": 96, "unit": "%"}]}
